Results as given in patent publication US20220281975A1 (Eli Lilly, published 2022).

What was measured:
[1] = target: T1, Human TREM2 R47H (human, UniProt Q9NZC2 19-174, limits assumed); assay: SPR (Biacore), 37 C, antibody captured on protein A, TREM2 R47H analyte, 1:1 model
T1 construct: also called human R47H TREM mutant; R47H TREM
T1 sequence (looked up): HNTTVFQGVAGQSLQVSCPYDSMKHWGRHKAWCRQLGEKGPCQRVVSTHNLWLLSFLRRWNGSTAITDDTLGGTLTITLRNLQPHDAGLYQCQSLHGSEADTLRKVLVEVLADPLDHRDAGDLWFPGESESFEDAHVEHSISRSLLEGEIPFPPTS

[2] = target: T2, Mouse ECD TREM2-His (mouse, UniProt Q99NH8 19-171); assay: SPR (Biacore), 37 C, antibody captured on protein A, TREM2-His ECD analyte, 1:1 model
T2 construct: also called Mouse TREM2
T2 sequence: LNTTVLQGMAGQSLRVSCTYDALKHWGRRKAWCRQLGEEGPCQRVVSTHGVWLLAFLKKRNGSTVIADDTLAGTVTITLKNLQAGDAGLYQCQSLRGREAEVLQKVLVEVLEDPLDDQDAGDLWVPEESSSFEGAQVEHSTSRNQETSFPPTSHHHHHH
Method: (§1) The binding kinetics and affinity of TREM2 antibodies to human (SEQ ID NO: 11), mouse (SEQ ID NO: 12), rat (SEQ ID NO: 14), rabbit (SEQ ID NO: 13), or cynomolgus monkey (SEQ ID NO: 15) TREM2 extracellular domains (ECDs) fused to a C-terminal His tag are determined using surface plasmon resonance biosensor such as a BIAcore® T100, BIAcore® T200, or BIAcore® 8K (GE Healthcare, Piscataway, N .).
(§2) Samples are dissolved in 1xHBS-EP+running buffer (Teknova), and a protein A coupled CM5 Series S sensor chip (GE Healthcare) is utilized to capture antibody. Binding is evaluated using multiple analytical cycles. Each cycle is performed at 37° C. at a flow rate of 50 μl/min for antibody capture and 30 μl/min for ligand association and dissociation. Each cycle consists of the following: injection of 7 μl of 1 μg/ml antibody with the aim at a capture of 150-250 response units, injection of human, cynomolgus monkey, rabbit, rat, or mouse TREM2-His ECDs (starting at 20nM and using two-fold serial dilutions for each cycle) followed by 200 seconds for association, followed by 800 second dissociation phase, and regeneration using 10 mM glycine hydrochloride, pH 1.5 over a 30 second contact time. Association (i.e., kₒₙ) and dissociation rates (i.e., koff) for each cycle are evaluated using standard double referencing and fit to “1:1 (Langmuir) binding” model in the Biacore 8K evaluation in parallel kinetics batch mode. The affinity (KD) is calculated from the binding kinetics according to the relationship KD=Koff/Kₒₙ. Due to biphasic binding data for Reference Antibody A, a heterogenous ligand 2:1 binding modeling found in the Biacore 8K evaluation was used to calculate the KD. […] N=3 for Antibody 1 and Reference Antibody A, and n=1 for Reference Antibody B.

[3] = target: T3, Human ECD TREM2-His (human, UniProt Q9NZC2 19-174); assay: as above
T3 construct: also called Human TREM2; human TREM2 extracellular domain fused to a C-terminal His tag
T3 sequence: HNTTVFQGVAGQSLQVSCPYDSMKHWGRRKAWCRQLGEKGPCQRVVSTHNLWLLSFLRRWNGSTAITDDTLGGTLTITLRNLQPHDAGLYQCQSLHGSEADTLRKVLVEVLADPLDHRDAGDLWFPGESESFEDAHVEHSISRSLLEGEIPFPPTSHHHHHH
Method: as §1, §2

[4] = target: T4, Cyno ECD TREM2-His (cynomolgus monkey); assay: as above
T4 construct: also called Cyno TREM2; cynomolgus monkey TREM2
T4 chain: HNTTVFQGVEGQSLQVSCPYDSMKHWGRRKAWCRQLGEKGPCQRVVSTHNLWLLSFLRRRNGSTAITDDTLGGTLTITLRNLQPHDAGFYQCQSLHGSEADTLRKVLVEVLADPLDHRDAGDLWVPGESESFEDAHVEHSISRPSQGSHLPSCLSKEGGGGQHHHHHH
Method: as §1, §2

[5] = target: T5, human TREM2 expressed on BW5147.G.1.4 cells (human, UniProt Q9NZC2 19-230); assay: flow cytometry (MFI) on BW5147.G.1.4 cells expressing human TREM2 and DAP12, anti-human IgG Alexa Fluor 647 detection
T5 construct: whole, on cells; Co-expressed with the adapter DAP12; also called TREM2 expressing BW5147.G.1.4 cells
T5 sequence (looked up): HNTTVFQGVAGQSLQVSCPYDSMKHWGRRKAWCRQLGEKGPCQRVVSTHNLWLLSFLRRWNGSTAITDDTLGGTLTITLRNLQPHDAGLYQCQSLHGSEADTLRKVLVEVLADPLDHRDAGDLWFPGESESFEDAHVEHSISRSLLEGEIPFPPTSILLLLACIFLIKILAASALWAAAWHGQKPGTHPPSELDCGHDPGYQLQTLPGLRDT
Method: To investigate whether Antibody 1 binds to TREM2-expressing cells, a binding experiment is performed. BW5147.G.1.4 cell line is transduced to express human TREM2 and its adapter […] adapter protein 12 (DAP12). To assess binding, 500,000 cells are incubated in the presence of Antibody 1 with a 3-fold 12-point titration starting at 30 μg/ml for 30 minutes at 37° C. Antibody binding is detected using goat anti-human IgG Alexa Fluor 647 (Jackson Labs). Mean fluorescence intensity (MFI) is measured using an Accuri C6 Plus flow cytometer (BD Biosciences).

[6] = target: T2, Mouse ECD TREM2-His; assay: SPR (Biacore), 25 C; 25 C; mouse TREM2
[7] = target: T5, human TREM2 expressed on BW5147.G.1.4 …; assay: cell-based or functional assay
[8] = target: T1, Human TREM2 R47H; assay: SPR (Biacore), 25 C; 25 C; human TREM2 R47H
[9] = target: T6, Rat ECD TREM2-His (rat); assay: SPR (Biacore), 37 C, antibody captured on protein A, TREM2-His ECD as analyte
T6 construct: also called Rat TREM2
T6 chain: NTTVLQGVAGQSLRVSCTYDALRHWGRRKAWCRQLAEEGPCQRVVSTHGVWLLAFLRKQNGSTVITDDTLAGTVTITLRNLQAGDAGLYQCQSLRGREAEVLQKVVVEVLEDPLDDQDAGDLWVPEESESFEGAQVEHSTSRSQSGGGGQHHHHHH
Method: as §1
(§3) Samples are dissolved in 1xHBS-EP+running buffer (Teknova), and a protein A coupled CM5 Series S sensor chip (GE Healthcare) is utilized to capture antibody. Binding is evaluated using multiple analytical cycles. Each cycle is performed at 37° C. at a flow rate of 50 μl/min for antibody capture and 30 μl/min for ligand association and dissociation. […] Association (i.e., kₒₙ) and dissociation rates (i.e., koff) for each cycle are evaluated using standard double referencing and fit to “1:1 (Langmuir) binding” model in the Biacore 8K evaluation in parallel kinetics batch mode. The affinity (KD) is calculated from the binding kinetics according to the relationship KD=Koff/Kₒₙ. […]

[10] = target: T7, Rabbit ECD TREM2-HIS (rabbit); assay: as above
T7 construct: also called rabbit TREM2
T7 chain: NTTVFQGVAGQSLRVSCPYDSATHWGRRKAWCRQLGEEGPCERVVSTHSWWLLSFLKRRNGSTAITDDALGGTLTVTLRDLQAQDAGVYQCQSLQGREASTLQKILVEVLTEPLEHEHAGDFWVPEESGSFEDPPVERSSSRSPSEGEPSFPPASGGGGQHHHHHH
Method: as §1, §3

[11] = target: T3, Human ECD TREM2-His; assay: SPR (Biacore), 25 C; 25 C; human TREM2
[12] = target: T4, Cyno ECD TREM2-His; assay: SPR (Biacore), 25 C; 25 C; cynomolgus TREM2

B1: TREM2 Antibody 1 (antibody, human IgG4 S228P, kappa, F234A L235A, V domains shown)
VH: EVQLVQSGAEVKKPGESLKISCKGSGFSFNTYWIGWVRQMPGKGLEWMGIIYPGDQDIRYSPSFQGQVTISADKSISTAYLQWSSLKASDTAMYYCARYGRYIYGYGGYHGMDVWGQGTTVTVSS
VL: DIQMTQSPSSLSASVGDRVTITCRASQAIRDDLGWYQQKPGKAPKLLIYAASSLQSGVPSRFSGSGSGTDFTLTISSLQPEDFATYYCLQNYNYPHTFGQGTKLEIKR
notes: Human antibody with a kappa light chain
[1]
  Kd: 0.075 nM
  koff: 0.00037 s⁻¹
  kon: 5e+06 M⁻¹ s⁻¹
[2]
  Kd: 1.6 nM
  koff: 0.044 s⁻¹
  kon: 2.5e+07 M⁻¹ s⁻¹
[3]
  Kd: 0.17 nM
  koff: 0.00058 s⁻¹
  kon: 3.4e+06 M⁻¹ s⁻¹
[4]
  Kd: 0.075 nM
  koff: 0.00037 s⁻¹
  kon: 5e+06 M⁻¹ s⁻¹
[5]
  EC50: 0.08 µg/mL
[6]
  Kd: 3.9 nM
[7]
  IC50 of inhibition of PS-mediated NFAT activation (luciferase reporter cells): 0.4 µg/mL
[8]
  Kd: 0.29 nM
[9]
  binding result: no binding (tested: 200 nM TREM2)
[10]
  binding result: no binding
[11]
  Kd: 0.15 nM
[12]
  Kd: 0.043 nM
